# In patent US20160109449A1 (JULIUS MAXIMILIANS UNIVERSITAET WUERZBURG, published 2016):
# T1: IsaA oligopeptide SEQ ID NO: 26 (Staphylococcus aureus)
# T1 construct: Synthetic 15-mer of IsaA, spotted on a glass slide
# T1 peptide: FQYNFTSNGTTWSWS
# T2: IsaA oligopeptide SEQ ID NO: 59 (Staphylococcus aureus)
# T2 construct: Synthetic 15-mer of IsaA, spotted on a glass slide
# T2 peptide: QTMPGWGPTNTVDQQ
# T3: IsaA oligopeptide SEQ ID NO: 15 (Staphylococcus aureus)
# T3 construct: Synthetic 15-mer of IsaA, spotted on a glass slide
# T3 peptide: HQAHAAEVNVDQAHL
# T4: IsaA oligopeptide SEQ ID NO: 46 (Staphylococcus aureus)
# T4 construct: Synthetic 15-mer of IsaA, spotted on a glass slide
# T4 peptide: SNGNTAGATGSSAAQ
# T5: IsaA oligopeptide SEQ ID NO: 38 (Staphylococcus aureus)
# T5 construct: Synthetic 15-mer of IsaA, spotted on a glass slide
# T5 peptide: YNAQSSNSNVEAVSA
# T6: IsaA oligopeptide SEQ ID NO: 43 (Staphylococcus aureus)
# T6 construct: Synthetic 15-mer of IsaA, spotted on a glass slide
# T6 peptide: YSTSTTSSSVRLSNG
# T7: IsaA oligopeptide SEQ ID NO: 17 (Staphylococcus aureus)
# T7 construct: Synthetic 15-mer of IsaA, spotted on a glass slide
# T7 peptide: NVDQAHLVDLAHNHQ
# T8: IsaA oligopeptide SEQ ID NO: 33 (Staphylococcus aureus)
# T8 construct: Synthetic 15-mer of IsaA, spotted on a glass slide
# T8 peptide: VAGADYTTSYNQGSD
# T9: IsaA oligopeptide SEQ ID NO: 54 (Staphylococcus aureus)
# T9 construct: Synthetic 15-mer of IsaA, spotted on a glass slide
# T9 peptide: ARESNGQVNAYNPSG
# T10: IsaA oligopeptide SEQ ID NO: 50 (Staphylococcus aureus)
# T10 construct: Synthetic 15-mer of IsaA, spotted on a glass slide
# T10 peptide: MAQRTGVSASTWAAI
# T11: IsaA oligopeptide SEQ ID NO: 32 (Staphylococcus aureus)
# T11 construct: Synthetic 15-mer of IsaA, spotted on a glass slide
# T11 peptide: GFSNVAGADYTTSYN
# T12: IsaA oligopeptide SEQ ID NO: 24 (Staphylococcus aureus)
# T12 construct: Synthetic 15-mer of IsaA, spotted on a glass slide
# T12 peptide: DIHFVKDGFQYNFTS
# T13: IsaA oligopeptide SEQ ID NO: 12 (Staphylococcus aureus)
# T13 construct: Synthetic 15-mer of IsaA, spotted on a glass slide
# T13 peptide: ALGVTGYAAGTGHQA
# T14: IsaA oligopeptide SEQ ID NO: 41 (Staphylococcus aureus)
# T14 construct: Synthetic 15-mer of IsaA, spotted on a glass slide
# T14 peptide: VSAPTYHNYSTSTTS
# T15: IsaA oligopeptide SEQ ID NO: 52 (Staphylococcus aureus)
# T15 construct: Synthetic 15-mer of IsaA, spotted on a glass slide
# T15 peptide: ASTWAAIIARESNGQ
# T16: IsaA oligopeptide SEQ ID NO: 44 (Staphylococcus aureus)
# T16 construct: Synthetic 15-mer of IsaA, spotted on a glass slide
# T16 peptide: TTSSSVRLSNGNTAG
# T17: IsaA oligopeptide SEQ ID NO: 48 (Staphylococcus aureus)
# T17 construct: Synthetic 15-mer of IsaA, spotted on a glass slide
# T17 peptide: TGSSAAQIMAQRTGV
# T18: IsaA oligopeptide SEQ ID NO: 47 (Staphylococcus aureus)
# T18 construct: Synthetic 15-mer of IsaA, spotted on a glass slide
# T18 peptide: TAGATGSSAAQIMAQ
# T19: IsaA oligopeptide SEQ ID NO: 35 (Staphylococcus aureus)
# T19 construct: Synthetic 15-mer of IsaA, spotted on a glass slide
# T19 peptide: SYNQGSDVQSVSYNA
# T20: IsaA oligopeptide SEQ ID NO: 21 (Staphylococcus aureus)
# T20 construct: Synthetic 15-mer of IsaA, spotted on a glass slide
# T20 peptide: QLNAAPIKDGAYDIH
# T21: IsaA oligopeptide SEQ ID NO: 25 (Staphylococcus aureus)
# T21 construct: Synthetic 15-mer of IsaA, spotted on a glass slide
# T21 peptide: VKDGFQYNFTSNGTT
# T22: IsaA oligopeptide SEQ ID NO: 23 (Staphylococcus aureus)
# T22 construct: Synthetic 15-mer of IsaA, spotted on a glass slide
# T22 peptide: DGAYDIHFVKDGFQY
# T23: IsaA oligopeptide SEQ ID NO: 53 (Staphylococcus aureus)
# T23 construct: Synthetic 15-mer of IsaA, spotted on a glass slide
# T23 peptide: AAIIARESNGQVNAY
# T24: IsaA oligopeptide SEQ ID NO: 11 (Staphylococcus aureus)
# T24 construct: Synthetic 15-mer of IsaA, spotted on a glass slide
# T24 peptide: SLAVALGVTGYAAGT
# T25: IsaA oligopeptide SEQ ID NO: 39 (Staphylococcus aureus)
# T25 construct: Synthetic 15-mer of IsaA, spotted on a glass slide
# T25 peptide: SSNSNVEAVSAPTYH
# T26: IsaA oligopeptide SEQ ID NO: 58 (Staphylococcus aureus)
# T26 construct: Synthetic 15-mer of IsaA, spotted on a glass slide
# T26 peptide: SGLFQTMPGWGPTNT
# T27: IsaA oligopeptide SEQ ID NO: 51 (Staphylococcus aureus)
# T27 construct: Synthetic 15-mer of IsaA, spotted on a glass slide
# T27 peptide: TGVSASTWAAIIARE
# T28: IsaA oligopeptide SEQ ID NO: 27 (Staphylococcus aureus)
# T28 construct: Synthetic 15-mer of IsaA, spotted on a glass slide
# T28 peptide: FTSNGTTWSWSYEAA
# T29: IsaA oligopeptide SEQ ID NO: 57 (Staphylococcus aureus)
# T29 construct: Synthetic 15-mer of IsaA, spotted on a glass slide
# T29 peptide: PSGASGLFQTMPGWG
# T30: IsaA oligopeptide SEQ ID NO: 62 (Staphylococcus aureus)
# T30 construct: Synthetic 15-mer of IsaA, spotted on a glass slide
# T30 peptide: DQQINAAVKAYKAQG
# T31: IsaA oligopeptide SEQ ID NO: 18 (Staphylococcus aureus)
# T31 construct: Synthetic 15-mer of IsaA, spotted on a glass slide
# T31 peptide: AHLVDLAHNHQDQLN
# T32: IsaA oligopeptide SEQ ID NO: 61 (Staphylococcus aureus)
# T32 construct: Synthetic 15-mer of IsaA, spotted on a glass slide
# T32 peptide: TNTVDQQINAAVKAY
# T33: IsaA oligopeptide SEQ ID NO: 64 (Staphylococcus aureus)
# T33 construct: Synthetic 15-mer of IsaA, spotted on a glass slide
# T33 peptide: AVKAYKAQGLGAWGF
# Tests used:
# Assay in all cases: peptide array on glass slide, fluorescent secondary antibody;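 note: binding of a hybridoma-secreted monoclonal antibody to immobilized oligopeptide spots, compared with control antibodies, detected through a fluorescence-labeled secondary antibody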
# [1] = biological target: T1, IsaA oligopeptide SEQ ID NO: 26
# Protocol: (§1) Each oligopeptide was immobilized on a small spot on a glass side. Binding of the monoclonal antibodies secreted by the hybridoma cell line DSM ACC2987 and of control antibodies to these spots was examined upon incubation with these antibodies by binding of fluorescence labeled secondary antibodies and detecting fluorescence intensities.
# [2] = biological target: T2, IsaA oligopeptide SEQ ID NO: 59
# Protocol: as §1
# [3] = biological target: T3, IsaA oligopeptide SEQ ID NO: 15
# Protocol: as §1
# [4] = biological target: T4, IsaA oligopeptide SEQ ID NO: 46
# Protocol: as §1
# [5] = biological target: T5, IsaA oligopeptide SEQ ID NO: 38
# Protocol: as §1
# [6] = biological target: T6, IsaA oligopeptide SEQ ID NO: 43
# Protocol: as §1
# [7] = biological target: T7, IsaA oligopeptide SEQ ID NO: 17
# Protocol: as §1
# [8] = biological target: T8, IsaA oligopeptide SEQ ID NO: 33
# Protocol: as §1
# [9] = biological target: T9, IsaA oligopeptide SEQ ID NO: 54
# Protocol: as §1
# [10] = biological target: T10, IsaA oligopeptide SEQ ID NO: 50
# Protocol: as §1
# [11] = biological target: T11, IsaA oligopeptide SEQ ID NO: 32
# Protocol: as §1
# [12] = biological target: T12, IsaA oligopeptide SEQ ID NO: 24
# Protocol: as §1
# [13] = biological target: T13, IsaA oligopeptide SEQ ID NO: 12
# Protocol: as §1
# [14] = biological target: T14, IsaA oligopeptide SEQ ID NO: 41
# Protocol: as §1
# [15] = biological target: T15, IsaA oligopeptide SEQ ID NO: 52
# Protocol: as §1
# [16] = biological target: T16, IsaA oligopeptide SEQ ID NO: 44
# Protocol: as §1
# [17] = biological target: T17, IsaA oligopeptide SEQ ID NO: 48
# Protocol: as §1
# [18] = biological target: T18, IsaA oligopeptide SEQ ID NO: 47
# Protocol: as §1
# [19] = biological target: T19, IsaA oligopeptide SEQ ID NO: 35
# Protocol: as §1
# [20] = biological target: T20, IsaA oligopeptide SEQ ID NO: 21
# Protocol: as §1
# [21] = biological target: T21, IsaA oligopeptide SEQ ID NO: 25
# Protocol: as §1
# [22] = biological target: T22, IsaA oligopeptide SEQ ID NO: 23
# Protocol: as §1
# [23] = biological target: T23, IsaA oligopeptide SEQ ID NO: 53
# Protocol: as §1
# [24] = biological target: T24, IsaA oligopeptide SEQ ID NO: 11
# Protocol: as §1
# [25] = biological target: T25, IsaA oligopeptide SEQ ID NO: 39
# Protocol: as §1
# [26] = biological target: T26, IsaA oligopeptide SEQ ID NO: 58
# Protocol: as §1
# [27] = biological target: T27, IsaA oligopeptide SEQ ID NO: 51
# Protocol: as §1
# [28] = biological target: T28, IsaA oligopeptide SEQ ID NO: 27
# Protocol: as §1
# [29] = biological target: T29, IsaA oligopeptide SEQ ID NO: 57
# Protocol: as §1
# [30] = biological target: T30, IsaA oligopeptide SEQ ID NO: 62
# Protocol: as §1
# [31] = biological target: T31, IsaA oligopeptide SEQ ID NO: 18
# Protocol: as §1
# [32] = biological target: T32, IsaA oligopeptide SEQ ID NO: 61
# Protocol: as §1
# [33] = biological target: T33, IsaA oligopeptide SEQ ID NO: 64
# Protocol: as §1
binder,measurement,setting,value
"monoclonal antibody MAB-UK-66 secreted by hybridoma cell line DSM ACC2987 (antibody, V domains shown, Monoclonal mouse antibody from a hybridoma; Detected with anti-mouse IgG; also called antibodies secreted by cell line DSM ACC2987; anti-IsaA MAB) VH: DVKLVESGGGLVKLGGSLKLSCSASGFTFSNYYMSWVRQTPEKRLELVADINGNGGSTYYPDTVKGRFTISRDNAKNTLYLQMSSLKSEDTALYYCVRRGGYYALDYWGQGTTVTVSS VL: DVVMTQTPLSLPVSLGDQASISCRSSQSLVHINGNTYLHWYLQKPGQSPKLLIYRVSNRFSGVPDRFSGSGSGTDFTLKISRVEAEDLGVYFCSQSTHVPWTFGGGTKLELKR",Binding (fluorescence intensity),[1],51800
same,Binding (fluorescence intensity),[2],1400
same,Binding (fluorescence intensity),[3],11700
same,Binding (fluorescence intensity),[4],587
same,Binding (fluorescence intensity),[5],975
same,Binding (fluorescence intensity),[6],371
same,Binding (fluorescence intensity),[7],17700
same,Binding (fluorescence intensity),[8],55500
same,Binding (fluorescence intensity),[9],570
same,Binding (fluorescence intensity),[10],192
same,Binding (fluorescence intensity),[11],59500
same,Binding (fluorescence intensity),[12],9360
same,Binding (fluorescence intensity),[13],680
same,Binding (fluorescence intensity),[14],421
same,Binding (fluorescence intensity),[15],285
same,Binding (fluorescence intensity),[16],486
same,Binding (fluorescence intensity),[17],1170
same,Binding (fluorescence intensity),[18],252
same,Binding (fluorescence intensity),[19],506
same,Binding (fluorescence intensity),[20],33300
same,Binding (fluorescence intensity),[21],49300
same,Binding (fluorescence intensity),[22],63900
same,Binding (fluorescence intensity),[23],577
same,Binding (fluorescence intensity),[24],101
same,Binding (fluorescence intensity),[25],491
same,Binding (fluorescence intensity),[26],1320
same,Binding (fluorescence intensity),[27],139
same,Binding (fluorescence intensity),[28],442
same,Binding (fluorescence intensity),[29],16800
same,Binding (fluorescence intensity),[30],551
same,Binding (fluorescence intensity),[31],25300
same,Binding (fluorescence intensity),[32],479
same,Binding (fluorescence intensity),[33],379
